# Reference: PMC3234886 (Biochemistry, 2011)
# T1: His6-Rna14-ES (R562E/Y563S) (Saccharomyces cerevisiae, UniProt P25298 1-677, R562E | Y563S)
# T1 sequence (looked up): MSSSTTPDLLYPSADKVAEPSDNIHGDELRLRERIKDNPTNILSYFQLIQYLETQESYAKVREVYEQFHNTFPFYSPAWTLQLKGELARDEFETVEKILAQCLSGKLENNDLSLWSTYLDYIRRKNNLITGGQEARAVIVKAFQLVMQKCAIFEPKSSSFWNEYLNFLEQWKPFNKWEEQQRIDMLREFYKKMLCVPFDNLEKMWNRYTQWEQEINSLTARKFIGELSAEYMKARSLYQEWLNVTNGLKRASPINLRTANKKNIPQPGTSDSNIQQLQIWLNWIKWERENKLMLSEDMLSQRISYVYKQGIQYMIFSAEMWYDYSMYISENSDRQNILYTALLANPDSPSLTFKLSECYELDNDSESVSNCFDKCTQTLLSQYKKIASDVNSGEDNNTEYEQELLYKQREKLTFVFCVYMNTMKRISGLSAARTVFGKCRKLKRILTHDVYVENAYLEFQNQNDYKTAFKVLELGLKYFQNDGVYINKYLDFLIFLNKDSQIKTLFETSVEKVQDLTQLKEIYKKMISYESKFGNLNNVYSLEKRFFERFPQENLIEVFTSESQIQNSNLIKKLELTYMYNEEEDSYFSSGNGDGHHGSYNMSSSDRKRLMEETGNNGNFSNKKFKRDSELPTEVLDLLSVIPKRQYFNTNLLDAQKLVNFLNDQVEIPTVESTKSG
# B1: Rna15 (untagged, co-expressed with Rna14) (natural protein, Saccharomyces cerevisiae, UniProt P25299 1-296, looked up)
# chain: MNRQSGVNAGVQNNPPSRVVYLGSIPYDQTEEQILDLCSNVGPVINLKMMFDPQTGRSKGYAFIEFRDLESSASAVRNLNGYQLGSRFLKCGYSSNSDISGVSQQQQQQYNNINGNNNNNGNNNNNSNGPDFQNSGNANFLSQKFPELPSGIDVNINMTTPAMMISSELAKKPKEVQLKFLQKFQEWTRAHPEDAVSLLELCPQLSFVTAELLLTNGICKVDDLIPLASRPQEEASATNNNSVNEVVDPAVLNKQKELLKQVLQLNDSQISILPDDERMAIWDLKQKALRGEFGAF
# B2: His6-Rna14 (wild type) (natural protein, Saccharomyces cerevisiae, UniProt P25298 1-677, looked up)
# chain: MSSSTTPDLLYPSADKVAEPSDNIHGDELRLRERIKDNPTNILSYFQLIQYLETQESYAKVREVYEQFHNTFPFYSPAWTLQLKGELARDEFETVEKILAQCLSGKLENNDLSLWSTYLDYIRRKNNLITGGQEARAVIVKAFQLVMQKCAIFEPKSSSFWNEYLNFLEQWKPFNKWEEQQRIDMLREFYKKMLCVPFDNLEKMWNRYTQWEQEINSLTARKFIGELSAEYMKARSLYQEWLNVTNGLKRASPINLRTANKKNIPQPGTSDSNIQQLQIWLNWIKWERENKLMLSEDMLSQRISYVYKQGIQYMIFSAEMWYDYSMYISENSDRQNILYTALLANPDSPSLTFKLSECYELDNDSESVSNCFDKCTQTLLSQYKKIASDVNSGEDNNTEYEQELLYKQREKLTFVFCVYMNTMKRISGLSAARTVFGKCRKLKRILTHDVYVENAYLEFQNQNDYKTAFKVLELGLKYFQNDGVYINKYLDFLIFLNKDSQIKTLFETSVEKVQDLTQLKEIYKKMISYESKFGNLNNVYSLEKRFFERFPQENLIEVFTSRYQIQNSNLIKKLELTYMYNEEEDSYFSSGNGDGHHGSYNMSSSDRKRLMEETGNNGNFSNKKFKRDSELPTEVLDLLSVIPKRQYFNTNLLDAQKLVNFLNDQVEIPTVESTKSG
# B3: wild-type Rna14/Rna15 complex (2:2 heterotetramer) (complex, Saccharomyces cerevisiae)
# chain 1: MSSSTTPDLLYPSADKVAEPSDNIHGDELRLRERIKDNPTNILSYFQLIQYLETQESYAKVREVYEQFHNTFPFYSPAWTLQLKGELARDEFETVEKILAQCLSGKLENNDLSLWSTYLDYIRRKNNLITGGQEARAVIVKAFQLVMQKCAIFEPKSSSFWNEYLNFLEQWKPFNKWEEQQRIDMLREFYKKMLCVPFDNLEKMWNRYTQWEQEINSLTARKFIGELSAEYMKARSLYQEWLNVTNGLKRASPINLRTANKKNIPQPGTSDSNIQQLQIWLNWIKWERENKLMLSEDMLSQRISYVYKQGIQYMIFSAEMWYDYSMYISENSDRQNILYTALLANPDSPSLTFKLSECYELDNDSESVSNCFDKCTQTLLSQYKKIASDVNSGEDNNTEYEQELLYKQREKLTFVFCVYMNTMKRISGLSAARTVFGKCRKLKRILTHDVYVENAYLEFQNQNDYKTAFKVLELGLKYFQNDGVYINKYLDFLIFLNKDSQIKTLFETSVEKVQDLTQLKEIYKKMISYESKFGNLNNVYSLEKRFFERFPQENLIEVFTSRYQIQNSNLIKKLELTYMYNEEEDSYFSSGNGDGHHGSYNMSSSDRKRLMEETGNNGNFSNKKFKRDSELPTEVLDLLSVIPKRQYFNTNLLDAQKLVNFLNDQVEIPTVESTKSG
# chain 2: MNRQSGVNAGVQNNPPSRVVYLGSIPYDQTEEQILDLCSNVGPVINLKMMFDPQTGRSKGYAFIEFRDLESSASAVRNLNGYQLGSRFLKCGYSSNSDISGVSQQQQQQYNNINGNNNNNGNNNNNSNGPDFQNSGNANFLSQKFPELPSGIDVNINMTTPAMMISSELAKKPKEVQLKFLQKFQEWTRAHPEDAVSLLELCPQLSFVTAELLLTNGICKVDDLIPLASRPQEEASATNNNSVNEVVDPAVLNKQKELLKQVLQLNDSQISILPDDERMAIWDLKQKALRGEFGAF
# Tests used:
# [1] = biological target: His6-Rna14 (wild type) (Saccharomyces cerevisiae) (UniProt P25298); test: cross-linking
# [2] = biological target: His6-Rna14 (wild type) (Saccharomyces cerevisiae) (UniProt P25298); test: AUC
# [3] = biological target: His6-Rna14 (wild type) (Saccharomyces cerevisiae) (UniProt P25298); test: SEC
# [4] = biological target: T1, His6-Rna14-ES (R562E/Y563S); test: cross-linking
# [5] = biological target: T1, His6-Rna14-ES (R562E/Y563S); test: SEC
# [6] = biological target: the molecule itself; test: cross-linking
# [7] = biological target: the molecule itself; test: SEC
# [8] = biological target: the molecule itself; test: AUC
# [9] = biological target: MBP-tagged Pcf11/Clp1 complex (yeast, UniProt P39081 1-626; Q08685 1-445); test: pull-down
# Sequence of MBP-tagged Pcf11/Clp1 complex (P39081 whole entry, chain 1 of 2): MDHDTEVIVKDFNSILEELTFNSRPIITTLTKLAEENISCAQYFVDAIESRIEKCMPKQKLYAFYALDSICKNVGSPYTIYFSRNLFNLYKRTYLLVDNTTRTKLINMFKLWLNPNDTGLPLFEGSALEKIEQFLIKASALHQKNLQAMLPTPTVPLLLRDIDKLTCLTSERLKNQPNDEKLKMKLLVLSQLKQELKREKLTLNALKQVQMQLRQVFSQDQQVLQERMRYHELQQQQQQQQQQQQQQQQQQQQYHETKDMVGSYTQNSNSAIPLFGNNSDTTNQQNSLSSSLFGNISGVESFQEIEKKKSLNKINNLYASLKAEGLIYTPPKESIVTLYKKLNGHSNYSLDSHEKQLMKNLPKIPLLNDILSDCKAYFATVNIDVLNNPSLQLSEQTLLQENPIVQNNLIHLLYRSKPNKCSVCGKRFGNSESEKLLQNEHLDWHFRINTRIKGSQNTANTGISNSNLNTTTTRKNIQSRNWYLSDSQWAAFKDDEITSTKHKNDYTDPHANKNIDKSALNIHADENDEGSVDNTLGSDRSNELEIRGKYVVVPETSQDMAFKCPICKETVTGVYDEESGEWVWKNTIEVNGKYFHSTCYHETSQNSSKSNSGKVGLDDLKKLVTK
# Sequence of MBP-tagged Pcf11/Clp1 complex (Q08685 whole entry, chain 2 of 2): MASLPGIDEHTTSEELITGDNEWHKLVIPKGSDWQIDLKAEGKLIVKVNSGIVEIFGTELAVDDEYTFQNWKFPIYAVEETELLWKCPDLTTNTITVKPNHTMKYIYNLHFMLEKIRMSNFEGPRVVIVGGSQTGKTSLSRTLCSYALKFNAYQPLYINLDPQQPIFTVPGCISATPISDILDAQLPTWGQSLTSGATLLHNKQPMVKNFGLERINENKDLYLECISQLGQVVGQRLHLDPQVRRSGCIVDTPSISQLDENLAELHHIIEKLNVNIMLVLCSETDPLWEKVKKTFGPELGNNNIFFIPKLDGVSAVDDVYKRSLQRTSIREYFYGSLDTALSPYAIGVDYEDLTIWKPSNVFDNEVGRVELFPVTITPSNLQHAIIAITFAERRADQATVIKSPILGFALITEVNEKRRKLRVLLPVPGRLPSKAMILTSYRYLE
molecule,measurement,setting,value
"Rna15 (untagged, co-expressed with Rna14) (from UniProt P25299 1-296) (natural protein)",stoichiometry N (Rna15 per Rna14 (2:2)),[1],1
same,stoichiometry N (Rna15 per Rna14 (2:2)),[2],1
same,"ratio of Rna14 to Rna15 (intensity of stained bands, SEC peak fractions)",[3],2.7
B1,stoichiometry N,[4],1 Rna15 per Rna14-ES (1:1)
same,"ratio of Rna14 to Rna15 (intensity of stained bands, SEC peak fractions)",[5],2.5
B2,stoichiometry N,[6],2 copies of Rna14 in the complex
same,stoichiometry N,[7],2
B3,Kd,[8],45 µM
same,stoichiometry N,[9],1 Clp1/Pcf11 sub-complex per CF IA
